Changes are numbered by the printed parent chain.
B1: 04H1382-G1m/04L1086-lam1 (antibody, human IgG1, lambda, V domains shown)
VH: EVQLVESGGGLVKPGGSLRLSCAASGFTFSSKTMNWVRQAPGKGLEWVSSISTQSHYIYYARSVKGRFTISRDNAKNSLYLQMNSLRAEDTAVYYCARYGKREDMLWVFDYWGQGTLVTVSS
VL: QSALTQPPSASGSPGQTVTISCDGPSTGVGDYNYVHWYQQHPGKAPKLMIYFTSKKPSGVPDRFSGSKSGNTASLTVSGLQAEDEADYFCQTYAAPLGPMFGGGTKLTVLG
B2: 04H1654-KT462/04L1610-lam1//04H1656-HT441/04L1610-lam1 (antibody, human IgG1, lambda)
heavy 1: QVQLVESGGGVVQPGGSLRLSCAASGFTFSSKTMNWVRQAPGKGLEWVSSISTQSHYIYYARSVRGRFTISRDNAKNSLYLQMNSLRAEDTAVYYCARYGKREDMLWVFDYWGQGTLVTVSSASTKGPSVFPLAPSSKSTSGGTAALGCLVKDYFPEPVTVSWNSGALTSGVHTFPAVLQSSGLYSLSSVVTVPSSSLGTQTYICNVNHKPSNTKVDKRVEPKSCDKTHTCPPCPAPEFQWGPMVFLFPPKPKDVLMISRTPEVTCVVVDVSDEEPEVKFNWYVDGVEVHNAKTKPREEQYNATYRVVSVLPVLHQDWLNGKEYKCKVSNDALPAPIEKTISKAKGQPREPQVYTLPPSRKEMTKNQVSLTCLVKGFYPSDIAVEWESNGQPENNYKTTPPVLDSDGSFFLYSKLTVDKSRWQQGNVFSCSVMHEALHNHYTQKSLSLSP
heavy 2: B2 heavy 1 with R62E, K101A, F239L, Q240L, W241A, M244S, D273H, K339E, K361E, K444E
light: QSALTQPPSASGSPGQSVTISCEGPSTGVGDYNWVHWYQQHPGKAPKLMIYFTSKKPSGVPDRFSGSKSGNTASLTVSGLQAEDEADYYCQTYAAPLGPMFGGGTKLTVLGQPKAAPSVTLFPPSSEELQANKATLVCLISDFYPGAVTVAWKADSSPVKAGVETTTPSKQSNNKYAASSYLSLTPEQWKSHRSYSCQVTHEGSTVEKTVAPTECS
B3: 04H1654-KT473/04L1610-lam1//04H1656-HT451/04L1610-lam1 (antibody)
heavy 1: B2 heavy 1 with N439A, Y441T, Q443R, S445E
heavy 2: QVQLVESGGGVVQPGGSLRLSCAASGFTFSSKTMNWVRQAPGKGLEWVSSISTQSHYIYYAESVRGRFTISRDNAKNSLYLQMNSLRAEDTAVYYCARYGAREDMLWVFDYWGQGTLVTVSSASTKGPSVFPLAPSSKSTSGGTAALGCLVKDYFPEPVTVSWNSGALTSGVHTFPAVLQSSGLYSLSSVVTVPSSSLGTQTYICNVNHKPSNTKVDKRVEPKSCDKTHTCPPCPAPELLAGPSVFLFPPKPKDVLMISRTPEVTCVVVDVSHEEPEVKFNWYVDGVEVHNAKTKPREEQYNATYRVVSVLPVLHQDWLNGKEYKCKVSNDALPAPIEETISKAKGQPREPQVYTLPPSREEMTKNQVSLTCLVKGFYPSDIAVEWESNGQPENNYKTTPPVLDSDGSFFLYSKLTVDKSRWQQGNVFSCSVMHEALHAHTTREELSLSP
light: B2 light

Key:
[1] = target: human CTLA4 (soluble analyte of the Biacore assays of Reference Example 3-3) (human) (UniProt P16410); assay: SPR Biacore T200, 10 uM ATP
[2] = target: human FcγRIIb extracellular domain with C-terminal His-tag (human) (UniProt P31994); assay: SPR; binding amount / that of 04H1656-G1m/04L1610-lam1
[3] = target: human FcγRIIb extracellular domain with C-terminal His-tag (human) (UniProt P31994); assay: SPR (Biacore T200), FcγRIIb, amount bound per unit captured antibody

Chain of human FcγRIIb extracellular domain with C-terminal His-tag (human) (P31994 43-217): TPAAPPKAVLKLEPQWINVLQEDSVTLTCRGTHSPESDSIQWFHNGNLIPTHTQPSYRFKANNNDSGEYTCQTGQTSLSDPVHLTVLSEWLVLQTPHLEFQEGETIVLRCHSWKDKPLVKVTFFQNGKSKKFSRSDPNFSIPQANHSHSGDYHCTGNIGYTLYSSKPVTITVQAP
Chain of human CTLA4 (soluble analyte of the Biacore assays of Reference Example 3-3) (human) (P16410 36-161 limits assumed): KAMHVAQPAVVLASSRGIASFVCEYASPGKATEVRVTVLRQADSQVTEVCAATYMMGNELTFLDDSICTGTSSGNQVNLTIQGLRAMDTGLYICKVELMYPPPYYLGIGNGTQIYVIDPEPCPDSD

Binder	fold enhanced binding vs parent 04H1208-G1m/04L1086-lam1 [1] [fold]	Relative binding amount [2]	Binding amount [3]
B1	10	–	–
B2	–	1.7	0.014
B3	–	1.5	0.012
